The text below walks through data of patent US20240391950A1, “PEPTIDE CROSSLINKING AGENT AND CROSSLINKED PEPTIDE WHICH IS CROSSLINKED USING SAID CROSSLINKING AGENT” (Kagoshima University, priority 2020, published 2024).

Assay [1] addresses human serum-derived IgG (manufactured by Sigma-Aldrich Co. LLC). The assay is described as follows: 1 mL column with 1 mg peptide immobilised, human serum IgG 1 mg/mL at 1 mL/min; 1 wash with 0.1 N NaOH.
The target is the same in assay [2]. Nature of the assay: 1 mL column with 1 mg peptide immobilised, human serum IgG, 10% breakthrough; 1 wash with 0.1 N NaOH.
Assay [3] has the same target. Nature of the assay: 1 mL column with 1 mg peptide immobilised, human serum IgG, 10% breakthrough; 5 washes with 0.1 N NaOH.
Assay [4] has the same target. The assay is described as follows: 1 mL column with 1 mg peptide immobilised, human serum IgG 1 mg/mL at 1 mL/min; 5 washes with 0.1 N NaOH.
Assay [5] has as its target human IgG1 (human). The assay is described as follows: SPR, BIAcore T200, IgG immobilised on CM5 chip; the text value differs from Table 1 (8.0).
Assay [6] has as its target human serum-derived IgG (manufactured by Sigma-Aldrich Co. LLC). Nature of the assay: 1 mL column with 1 mg peptide immobilised, human serum IgG; 5 washes with 0.1 N NaOH.
Assay [7] concerns the target human IgG1 (human). The assay is described as follows: SPR, BIAcore T200, IgG immobilised on CM5 chip, peptide as analyte.
Assay [8] has as its target human serum-derived IgG (manufactured by Sigma-Aldrich Co. LLC). Nature of the assay: 1 mL column with 1 mg peptide immobilised, human serum IgG; 1 wash with 0.1 N NaOH.
The target is the same in assay [9]. The assay is described as follows: peptide-immobilised column, human serum IgG, 10% breakthrough.
Assay [10] has as its target human IgG1 (human). Nature of the assay: SPR, BIAcore T200, IgG immobilised on CM5 chip.
The target in assay [11] is human serum-derived IgG (manufactured by Sigma-Aldrich Co. LLC). Nature of the assay: 1 mL column with 1 mg peptide immobilised, human serum IgG 1 mg/mL at 1 mL/min; 10 washes with 0.1 N NaOH.
Assay [12] has the same target. Nature of the assay: 1 mL column with 1 mg peptide immobilised, human serum IgG; 10 washes with 0.1 N NaOH.
Assay [13] has the same target. Nature of the assay: 1 mL column with 1 mg peptide immobilised, human serum IgG, 10% breakthrough; 10 washes with 0.1 N NaOH.
For assay [14] the target is unchanged. The assay is described as follows: 1 mL column with 1 mg peptide immobilised, human serum IgG; 2 washes with 0.1 N NaOH.
Assay [15] shares this target. Nature of the assay: 1 mL column with 1 mg peptide immobilised, human serum IgG 1 mg/mL at 1 mL/min; 2 washes with 0.1 N NaOH.
The target is the same in assay [16]. Nature of the assay: 1 mL column with 1 mg peptide immobilised, human serum IgG, 10% breakthrough; 2 washes with 0.1 N NaOH.
For assay [17] the target is unchanged. The assay is described as follows: 1 mL column with 1 mg peptide immobilised, human serum IgG, 10% breakthrough; 4 washes with 0.1 N NaOH.
For assay [18] the target is unchanged. The assay is described as follows: 1 mL column with 1 mg peptide immobilised, human serum IgG; 4 washes with 0.1 N NaOH.
The target is the same in assay [19]. Nature of the assay: 1 mL column with 1 mg peptide immobilised, human serum IgG, 10% breakthrough; 30 washes with 0.1 N NaOH.
Assay [20] has the same target. Nature of the assay: 1 mL column with 1 mg peptide immobilised, human serum IgG 1 mg/mL at 1 mL/min; 3 washes with 0.1 N NaOH.
For assay [21] the target is unchanged. The assay is described as follows: 1 mL column with 1 mg peptide immobilised, human serum IgG, 10% breakthrough; 20 washes with 0.1 N NaOH.
Assay [22] has the same target. The assay is described as follows: 1 mL column with 1 mg peptide immobilised, human serum IgG 1 mg/mL at 1 mL/min; 30 washes with 0.1 N NaOH.
Assay [23] has the same target. The assay is described as follows: 1 mL column with 1 mg peptide immobilised, human serum IgG, 10% breakthrough; 3 washes with 0.1 N NaOH.
Assay [24] shares this target. Nature of the assay: 1 mL column with 1 mg peptide immobilised, human serum IgG 1 mg/mL at 1 mL/min; 4 washes with 0.1 N NaOH.
For assay [25] the target is unchanged. Nature of the assay: 1 mL column with 1 mg peptide immobilised, human serum IgG; 30 washes with 0.1 N NaOH.
The target is the same in assay [26]. The assay is described as follows: 1 mL column with 1 mg peptide immobilised, human serum IgG; 20 washes with 0.1 N NaOH.
The target is the same in assay [27]. The assay is described as follows: 1 mL column with 1 mg peptide immobilised, human serum IgG; 3 washes with 0.1 N NaOH.
Assay [28] shares this target. The assay is described as follows: 1 mL column with 1 mg peptide immobilised, human serum IgG 1 mg/mL at 1 mL/min; 20 washes with 0.1 N NaOH.

Positions of bridges follow the written chain, without caps; N, C: chain ends. No end group written: not given here.

Take GSGGSGPDCAYHRGELVWCTFH (disulfide 9-19 (inferred); not fully specified) [IgG-BP-LongGS, original IgG-binding peptide having a disulfide bond (GSGGS-…)]: the results for the Maximum binding capacity in [1] and in [4] were 12.4 mg and 6.09 mg, respectively. The Dynamic binding capacity turned out to be 17.2 mg/mL in [2] and 8.74 mg/mL in assay [3]. For the same molecule, the Variation (%) in dynamic binding capacity came to 100% in assay [2] and 50.7% in assay [3]. Further, the Kd in [5] turned out to be 8.2 nM; in assay [7], 8 nM. Moreover, the Variation (%) in maximum binding capacity is 49.2% in assay [6] and 100% in assay [8].

B1: 1,1-dichloropinacolin-crosslinked cyclic peptide of IgG-BP-LongGS (peptide)
peptide: GSGGSGPDCAYHRGELVWCTFH
modifications: the thiol groups of the two Cys residues crosslinked with 1,1-dichloropinacolin in place of the disulfide bond; Fmoc removed
On to B1, for which the Maximum binding capacity in assay [1] amounted to 12.1 mg; in assay [11], 10.6 mg; in [4] it was 10.9 mg; in assay [15], 12.1 mg. In [9], the DBC relative to the original IgG-binding peptide-immobilized column is 96%. Also, in assay [10], the fold reduction of affinity against the original peptide came to 14 fold. Besides, the Dynamic binding capacity in assay [2] worked out at 16.7 mg/mL; in [3], 16.2 mg/mL; in assay [13] it was 14.5 mg/mL; in assay [16], 17.2 mg/mL. The Variation (%) in dynamic binding capacity stood at 100% in assay [2], 97.2% in assay [3], 86.6% in [13] and 103% in [16]. Moreover, the Variation (%) in maximum binding capacity in assay [12] was found to be 87.1%; in [6] it was 89.8%; in assay [14], 99.8%; in assay [8], 100%. For the same molecule, the Kd in assay [7] was found to be 112 nM.

B2: 1,1-dichloroacetone-crosslinked cyclic peptide of IgG-BP-LongGS (peptide)
peptide: GSGGSGPDCAYHRGELVWCTFH
modifications: not fully specified; the thiol groups of the two Cys residues crosslinked with 1,1-dichloroacetone (1,1-Dichloro-2-propanone) in place of the disulfide bond; Fmoc removed
Consider B2, for which the Maximum binding capacity in assay [1] was determined as 9.68 mg; in [11], 9.32 mg; in assay [4], 9.93 mg; in assay [20], 9.88 mg; in [22] it was 8.78 mg; in assay [24], 10.1 mg. Further, the Maximum binding capacity in [15] is 9.7 mg; in [28] it was 8.35 mg. In addition, the Dynamic binding capacity in [17] was 12.2 mg/mL; in assay [2], 12.8 mg/mL; in assay [19], 11.6 mg/mL; in assay [3] it was 12.4 mg/mL; in assay [21], 12.4 mg/mL; in assay [13] it was 12.2 mg/mL. The Dynamic binding capacity in assay [23] is 12.2 mg/mL; in [16], 12.8 mg/mL. The Variation (%) in dynamic binding capacity in [17] came out at 95.3%; in assay [2], 100%; in [19] it was 90.6%; in [3] it was 96.9%; in [21], 96.9%; in [13], 95.3%. In addition, the Variation (%) in dynamic binding capacity in assay [23] stood at 95.3%; in assay [16] it was 100%. This molecule displayed a DBC relative to the original IgG-binding peptide-immobilized column in assay [9] of 74%. Besides, the Variation (%) in maximum binding capacity amounted to 104% in [18]; 96.3% in assay [12]; 90.7% in assay [25]; 103% in [6]; 100% in [14]; 86.3% in assay [26]. Further, the Variation (%) in maximum binding capacity in assay [8] stood at 100%; in assay [27] it was 102%. The molecule further displayed a fold reduction of affinity against the original peptide in assay [10] of 5 fold. In assay [7], the Kd is 45.6 nM.
